In patent publication US20180142016A1:

Biological target: human ROR1 extracellular domain (ECD) protein (human) (UniProt Q01973)
Assay: ForteBio Octet; pseudo association rate of Wnt5a binding to ROR1 in the presence of the negative control antibody, not a rate of the antibody itself

Sequence of human ROR1 extracellular domain (ECD) protein (human) (Q01973 30-406 limits assumed): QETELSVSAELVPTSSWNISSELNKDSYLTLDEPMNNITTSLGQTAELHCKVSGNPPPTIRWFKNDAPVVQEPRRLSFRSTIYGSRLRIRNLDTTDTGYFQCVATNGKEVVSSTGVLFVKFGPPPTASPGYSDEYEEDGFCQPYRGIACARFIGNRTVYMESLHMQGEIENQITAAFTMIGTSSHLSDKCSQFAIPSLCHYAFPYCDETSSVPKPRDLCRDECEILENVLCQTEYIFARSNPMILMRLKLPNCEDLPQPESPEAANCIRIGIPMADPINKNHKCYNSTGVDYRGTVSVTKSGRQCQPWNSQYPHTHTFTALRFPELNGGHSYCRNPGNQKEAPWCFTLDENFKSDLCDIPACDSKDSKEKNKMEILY

- Pesudo ka: 21000 M⁻¹ s⁻¹
Substance: mAb Control (antibody)
